Data taken from patent publication US20220155321A1 (published 2022).

T1: peptide on HLA-A*01:01 (human)
T1 peptide: ASSLPTTMNY

B1: Reference H (TCR, V domains shown)
Valpha: GESVGLHLPTLSVQEGDNSIINCAYSNSASDYFIWYKQESGKGPQFIIDIRSNMDKRQGQRVTVLLNKTVKHLSLQIAATQPGDSAVYFCAENMGGAGKSTFGDGTTLTVKP
Vbeta: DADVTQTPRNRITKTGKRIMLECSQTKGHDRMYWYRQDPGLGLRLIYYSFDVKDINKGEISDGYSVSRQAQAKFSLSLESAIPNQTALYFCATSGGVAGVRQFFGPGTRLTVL
B2: Reference F (TCR, V domains shown)
Valpha: QKEVEQNSGPLSVPEGAIASLNCTYSDRGSQSFFWYRQYSGKSPELIMFIYSNGDKEDGRFTAQLNKASQYVSLLIRDSQPSDSATYLCAVKDNNARLMFGDGTQLVVKP
Vbeta: KAGVTQTPRYLIKTRGQQVTLSCSPISGHRSVSWYQQTPGQGLQFLFEYFSETQRNKGNFPGRFSGRQFSNSRSEMNVSTLELGDSALYLCASSLSSGLYEQYFGPGTRLTVT
B3: Reference C (TCR, V domains shown)
Valpha: RKEVEQDPGPFNVPEGATVAFNCTYSNSASQSFFWYRQDCRKEPKLLMSVYSSGNEDGRFTAQLNRASQYISLLIRDSKLSDSATYLCVVPRMDSSYKLIFGSGTRLLVRP
Vbeta: KAGVTQTPRYLIKTRGQQVTLSCSPISGHRSVSWYQQTPGQGLQFLFEYFSETQRNKGNFPGRFSGRQFSNSRSEMNVSTLELGDSALYLCASSSTGARRSREQYFGPGTRLTVT
B4: Reference G (TCR, V domains shown)
Valpha: SQQGEEDPQALSIQEGENATMNCSYKTSINNLQWYRQNSGRGLVHLILIRSNEREKHSGRLRVTLDTSKKSSSLLITASRAADTASYFCATAVFNFGNEKLTFGTGTRLTIIP
Vbeta: KAGVTQTPRYLIKTRGQQVTLSCSPISGHRSVSWYQQTPGQGLQFLFEYFSETQRNKGNFPGRFSGRQFSNSRSEMNVSTLELGDSALYLCASSSMTSGGPWEQYFGPGTRLTVT
B5: Reference E (TCR, V domains shown)
Valpha: GQQVMQIPQYQHVQEGEDFTTYCNSSTTLSNIQWYKQRPGGHPVFLIQLVKSGEVKKQKRLTFQFGEAKKNSSLHITATQTTDVGTYFCAGQGNRDDKIIFGKGTRLHILP
Vbeta: DGGITQSPKYLFRKEGQNVTLSCEQNLNHDAMYWYRQDPGQGLRLIYYSQIVNDFQKGDIAEGYSVSREKKESFPLTVTSAQKNPTAFYLCASSLEWGPYEQYFGPGTRLTVT

Target: T1, peptide on HLA-A*01:01
Experiment: multimer staining

Binding result, recognises:
B1, B2, B3, B4, B5
